# What was measured:
# [1] = target: VEGFR2 expressed on HUVEC cells (human) (UniProt P35968); experiment: cell-based or functional assay
# mouse VEGFR2 = target: T1, mouse VEGFR2 (mouse, UniProt P35918 20-762, limits assumed); experiment: not described ("a further study")
# T1 construct: Assay and construct of the 'further study' are not described
# T1 sequence (P35918 20-762 limits assumed): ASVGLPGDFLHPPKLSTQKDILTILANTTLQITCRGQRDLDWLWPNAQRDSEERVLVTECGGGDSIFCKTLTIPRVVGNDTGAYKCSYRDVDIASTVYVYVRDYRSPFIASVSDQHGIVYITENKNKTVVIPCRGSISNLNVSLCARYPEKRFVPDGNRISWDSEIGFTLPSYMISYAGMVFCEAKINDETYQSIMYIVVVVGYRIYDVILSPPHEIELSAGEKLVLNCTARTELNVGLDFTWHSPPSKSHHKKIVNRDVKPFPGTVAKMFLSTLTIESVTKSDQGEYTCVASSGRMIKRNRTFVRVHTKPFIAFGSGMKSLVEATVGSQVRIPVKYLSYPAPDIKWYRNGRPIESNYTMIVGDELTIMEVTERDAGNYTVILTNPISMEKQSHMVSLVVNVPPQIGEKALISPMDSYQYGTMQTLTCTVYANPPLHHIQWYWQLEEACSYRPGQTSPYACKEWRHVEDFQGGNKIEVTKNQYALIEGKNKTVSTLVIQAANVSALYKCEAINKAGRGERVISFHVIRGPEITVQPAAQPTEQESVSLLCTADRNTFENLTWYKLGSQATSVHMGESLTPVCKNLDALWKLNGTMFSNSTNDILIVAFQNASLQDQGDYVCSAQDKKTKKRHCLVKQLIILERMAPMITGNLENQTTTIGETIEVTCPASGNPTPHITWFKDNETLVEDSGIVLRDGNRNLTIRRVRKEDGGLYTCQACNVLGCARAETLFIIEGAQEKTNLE
# VEGFR2 expressed on HUVEC cells (human), sequence (P35968 20-1356): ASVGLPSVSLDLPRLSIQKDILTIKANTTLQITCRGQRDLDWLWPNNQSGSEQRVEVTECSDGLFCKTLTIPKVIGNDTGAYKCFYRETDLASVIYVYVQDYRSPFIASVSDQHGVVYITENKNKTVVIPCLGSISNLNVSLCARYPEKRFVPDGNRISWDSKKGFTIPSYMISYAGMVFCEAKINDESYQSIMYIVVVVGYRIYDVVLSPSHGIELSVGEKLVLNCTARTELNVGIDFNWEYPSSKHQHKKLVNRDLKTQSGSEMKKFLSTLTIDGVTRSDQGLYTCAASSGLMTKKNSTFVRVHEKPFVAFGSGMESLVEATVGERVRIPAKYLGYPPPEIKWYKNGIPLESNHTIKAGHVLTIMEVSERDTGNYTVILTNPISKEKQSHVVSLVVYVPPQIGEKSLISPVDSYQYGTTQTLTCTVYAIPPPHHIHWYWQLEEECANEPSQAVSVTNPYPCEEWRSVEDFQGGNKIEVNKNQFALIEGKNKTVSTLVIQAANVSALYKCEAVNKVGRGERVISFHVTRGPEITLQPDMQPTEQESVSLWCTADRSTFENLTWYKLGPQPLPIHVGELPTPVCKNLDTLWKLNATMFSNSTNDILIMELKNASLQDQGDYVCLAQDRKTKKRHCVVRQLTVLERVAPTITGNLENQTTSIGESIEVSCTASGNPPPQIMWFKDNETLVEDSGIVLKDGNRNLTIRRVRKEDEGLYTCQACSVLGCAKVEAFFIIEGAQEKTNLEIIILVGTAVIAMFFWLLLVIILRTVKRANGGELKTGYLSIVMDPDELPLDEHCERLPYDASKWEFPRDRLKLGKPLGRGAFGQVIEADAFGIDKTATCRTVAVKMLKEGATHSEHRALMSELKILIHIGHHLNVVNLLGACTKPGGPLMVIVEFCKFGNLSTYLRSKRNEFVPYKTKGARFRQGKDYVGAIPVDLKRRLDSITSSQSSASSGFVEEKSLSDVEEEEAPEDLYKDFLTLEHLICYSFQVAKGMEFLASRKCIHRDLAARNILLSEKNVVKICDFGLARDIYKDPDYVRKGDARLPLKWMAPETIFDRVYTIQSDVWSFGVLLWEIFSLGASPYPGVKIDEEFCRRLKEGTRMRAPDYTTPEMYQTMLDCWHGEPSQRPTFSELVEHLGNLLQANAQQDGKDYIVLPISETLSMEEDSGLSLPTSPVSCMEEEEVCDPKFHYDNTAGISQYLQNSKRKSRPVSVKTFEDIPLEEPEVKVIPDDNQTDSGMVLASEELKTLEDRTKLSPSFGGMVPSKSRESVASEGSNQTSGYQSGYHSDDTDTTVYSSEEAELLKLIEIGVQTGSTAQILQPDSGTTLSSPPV
"HUVEC proliferation (VEGF-induced, cell count after 48 hours) [1]",binding result (mouse VEGFR2),Molecule
1 µg/mL,–,normal IgG (antibody)
–,no binding,"AC88 anti-VEGFR2 monoclonal antibody (antibody, human IgG1, kappa, V domains shown, Fully human IgG1 kappa from a hybridoma; also called AC88 antibody; anti-VEGFR2 antibody) VH: EVQLVESGGGLVKPGGSLRLSCAASGFTFSSYSMTWVRQAPGKGLEWVSSISSSSSYIYYADSVKGRFTISRDNAKNSLYLQMNSLRAEDTAVYYCAKATSGYMDVWGQGTTVTVSS VL: DIQMTQSPSSLSASVGDRVTITCQASQDINNYLNWYQQKPGKAPKLLIYDASNLETGVPSRFSGSGSGTDFTLTISSLESEDIATYYCQQHVNYPLTFGGGTKVEIKR"

# — patent publication US20110038874A1 (SHANGHAI AOSAIERSI BIOTECH, published 2011)
